Ends that are not written are not given here.
B1: EMP-1 (EPO mimetic peptide-1) (peptide)
peptide: GGTYSCHFGPLTWVCKPQGG
modifications: ends and bridges not checked; cysteine pairing not given here

Legend:
[1] = target: EPO receptor (on UT-7/EPO cells) (human) (UniProt P19235); assay: cell-based or functional assay
[2] = target: T1, EPO receptor (on UT-7/EPO cells) (human, UniProt P19235 25-508); assay: cell-based or functional assay
T1 sequence (looked up): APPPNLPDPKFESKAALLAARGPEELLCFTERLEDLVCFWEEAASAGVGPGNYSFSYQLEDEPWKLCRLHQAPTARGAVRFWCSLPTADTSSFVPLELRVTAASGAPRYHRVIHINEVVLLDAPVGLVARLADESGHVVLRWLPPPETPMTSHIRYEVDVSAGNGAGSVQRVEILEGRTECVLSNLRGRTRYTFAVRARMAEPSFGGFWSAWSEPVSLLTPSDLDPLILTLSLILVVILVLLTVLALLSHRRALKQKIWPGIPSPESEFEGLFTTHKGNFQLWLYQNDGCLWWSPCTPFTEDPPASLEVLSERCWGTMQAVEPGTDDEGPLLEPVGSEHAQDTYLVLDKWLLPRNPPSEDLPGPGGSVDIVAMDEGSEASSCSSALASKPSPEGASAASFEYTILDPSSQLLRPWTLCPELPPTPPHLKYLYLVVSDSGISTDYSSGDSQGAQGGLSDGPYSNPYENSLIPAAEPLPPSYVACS

Molecule	EC50 in the UT7 in vitro bioactivity assay, relative to its historical average [1]	EC50 in the UT-7/EPO in vitro bioactivity assay, relative to its historical average [2]
recombinant human erythropoietin (rHuEPO) (from UniProt P01588 28-192) (ligand)	3 fold	
B1		2 fold

— patent US20050191301A1 (Janssen / Centocor, published 2005)
